Laboratory results: patent US20240384250A1, “FIBROBLAST GROWTH FACTOR 23 MODULATING COMPOUNDS” (THE UAB RESEARCH FOUNDATION, priority 2021, published 2024)
One block for each molecule: values may come before it.

Key:
FGFR1c = target: T1, FGFR1c (Homo sapiens, UniProt P11362); experiment: Plate-based binding assay, FGFR1c coated, FLAG-sKL detected with anti-FLAG HRP; conditions: purified protein
T1 construct: Fc-coupled FGFR ectodomains were immobilized on protein A/G beads; purchased R&D Systems 658FR050
T1 sequence (P11362 22-376 limits assumed): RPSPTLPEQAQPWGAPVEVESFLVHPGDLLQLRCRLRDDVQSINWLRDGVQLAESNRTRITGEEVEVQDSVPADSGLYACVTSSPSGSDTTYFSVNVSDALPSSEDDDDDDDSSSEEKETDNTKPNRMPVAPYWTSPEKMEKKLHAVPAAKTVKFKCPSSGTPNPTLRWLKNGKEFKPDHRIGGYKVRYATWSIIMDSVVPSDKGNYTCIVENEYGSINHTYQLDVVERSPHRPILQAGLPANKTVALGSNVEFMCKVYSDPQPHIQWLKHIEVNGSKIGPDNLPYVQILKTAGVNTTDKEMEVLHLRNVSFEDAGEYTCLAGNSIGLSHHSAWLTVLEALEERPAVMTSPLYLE
Description: (§1) Proteins were coated on 96-well plates (MaxiSorp; 439454, Thermo Fisher Scientific), and proteins were added to wells in 100 μl of enzyme-linked immunosorbent assay (ELISA) coating buffer (E107, Bethyl Laboratories) with a lid placed overtop and incubated at 4° C. overnight. Plates were washed 5× with 350 μl of assay buffer (50 mM Tris [pH 7.4], 200 mM NaCl, 0.01% Tween 20) on a 50 TS microplate washer (BioTek). Plates were blocked for 1 hour in 200 μl of assay buffer with 0.5% BSA. Plates were washed as before, and proteins were incubated on plates in 100 μl of assay buffer with 0.5% BSA. Proteins or heparin was incubated in orders described in the respective figure legends. Assays using FLAG-tag-based detection were incubated with anti-FLAG coupled to HRP at 1:20,000, and assays using Fc detection were incubated with anti-human Fc coupled to HRP at 1:10,000. Plates were washed as above, and 100 μl of 3,3′,5,5′-tetramethylbenzidine (TMB) substrate (E102, Bethyl Laboratories) was added for 15 to 20 minutes until positive wells developed a dark blue color. Reactions were stopped with ELISA stop solution (E115, Bethyl Laboratories) and analyzed using the Synergy HI plate reader (BioTek) at 450 nm wavelength. […] As a control to remove background absorbance values, wells were coated with an equal amount of BSA to match the amount of protein coated in experimental wells and treated the same as experimental wells. To study the effects of sKL on the binding between paracrine FGFs and FGFRs, plates were run as above except coated with paracrine FGFs. Fc-FGFR1 was preincubated with sKL or vehicle for 60 minutes, and then the combination was added to wells and the assay was run as before.

FGF23 = target: T2, FGF23 (Homo sapiens, UniProt Q9GZV9); experiment: Plate-based binding assay, FGF23 coated, FLAG-sKL detected with anti-FLAG HRP; conditions: 100 ng FGF23 coated
T2 construct: purchased R&D Systems 2604FG025/CF (human) or 2629FG025/CF (mouse)
T2 sequence (Q9GZV9 25-251): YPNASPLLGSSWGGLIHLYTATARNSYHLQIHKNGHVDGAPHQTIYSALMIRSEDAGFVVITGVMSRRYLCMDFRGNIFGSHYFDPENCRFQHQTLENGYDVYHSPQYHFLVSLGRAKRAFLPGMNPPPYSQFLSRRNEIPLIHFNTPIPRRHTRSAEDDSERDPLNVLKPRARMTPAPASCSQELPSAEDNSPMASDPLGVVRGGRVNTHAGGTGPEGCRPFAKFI
Description: as §1

[1] = system: phosphorylated ERK in HEK293T cells; experiment: ERK phosphorylation in serum-starved HEK293 cells (Western blotting); assay type: cell-based, human; conditions: FGF 1.1 nM for 10 minutes, absence of sKL
Description: The sample (20 μl) was loaded onto Mini-PROTEAN TGX Precast Gel 4-20% for experiments with <9 samples (4568094, Bio-Rad) or Criterion TGX Precast Gel 4-20% (5678094, Bio-Rad) for experiments with >9 samples. Gels were run in 1× Tris/Glycine/SDS buffer (1610732, Bio-Rad) at 150 V and stopped when the sample dye reached the end of the gel. Gels were removed and electrotransferred via a semi-dry cassette (1703940, Bio-Rad) in I× Tris/Glycine buffer (1610734, Bio-Rad) with 20% methanol. Gels were transferred onto polyvinylidene diflouride membranes (IPVH00010, Millipore) at 20 V for 1 hour. Membranes were then blocked in 5% dried milk with 0.5% Tween 20 diluted in Tris-buffered saline (TBST; pH 7.5) for 1 hour and probed with antibodies against specific antigens at 1:1000 in TBST with 5% dried milk. Blots were washed 3× for 5 minutes in TBST and probed with HRP-coupled secondary antibodies against specific species at 1:10,000 in TBST with 5% dried milk. Membranes were imaged on the SRX-101A X-ray film developer (Konica Minolta).
To determine the cellular activity of paracrine FGFs, the activation/phosphorylation of ERK in HEK293 cells after treatment was studied. HEK293 cells were seeded in 6-well plates in DMEM (26140079, Gibco) supplemented with I× Pen/Strep (15140122, Gibco) and 10% FBS (26140079, Gibco) and grown for 48 hours. Upon reaching 80% confluence, cells were serum starved overnight in DMEM and 1× Pen/Strep without FBS. The medium was changed, and cells were treated with sKL at 2 μg/ml or vehicle (sKL elution buffer: 25 mM Tris ph 8.0, 500 mM NaCl) for 15 minutes. Cells were then treated with various FGFs at 1.1 nM for 10 minutes. Cells were lysed in 200 μl of RIPA with the addition of a protease inhibitor (11836153001, Roche) and phosphatase inhibitors (P5726 and P0044, Sigma-Aldrich) for 30 minutes. The mixture was then centrifuged at 20,000 g for 60 minutes to remove all cell debris. One hundred microliters of 1× Laemmli sample buffer (1610737, Bio-Rad) with 1.42 M 2-mercaptoethanol was added, and samples were boiled for 5 minutes. Twenty microliters of samples was loaded onto 12% SDS-PAGE gels and analyzed using Western blotting for total and phosphorylated ERK.

FGF23 and FGFR1c = experiment: sKL detection assay (FGF23 coated, Fc-FGFR1c detection); assay type: binding; conditions: lysates of stably transfected HEK293T cells
Description: Commercially available ELISA plates (Maxisorp) are coated with 5 μg/ml of recombinant FGF23 protein (R&D Systems) and unspecific binding sites are blocked with BSA/Tween20. Wells are incubated with sKL in solution (which can be plasma, serum or cell culture supernatants) for one hour, washed and incubated for one hour with 750 ng/ml of recombinant FGFR1α(IIIc)-Fc (R&D Systems), which is a chimeric protein consisting of the FGFR1 ectodomain and the Fc region of a human IgG. FGFR1 only binds to FGF23 in the presence of sKL, and the formation of this trimeric sandwich complex is then measured by detecting the presence of the Fc domain that is coupled to FGFR1. To do so, wells are washed and incubated with 400 ng/ml of anti-human IgG conjugated to horseradish peroxidase (HRP; Promega). Wells are washed and incubated with HRP substrate. After development for about 30 minutes, reactions are analyzed on a standard plate reader via absorptions at […]. Incubations with recombinant sKL dissolved in PBS at defined concentrations serve as standards that are used as reference values to determine sKL concentrations in the studied human samples. […]
HEK293 cells were plated in 10 cm dishes supplemented with 10% FBS (26140079, Gibco) and I× Pen/Strep (15140122, Gibco). Cells were transfected with appropriate klotho or green fluorescent protein cDNA constructs. After 2 days, clones were selected by using 1 μg/ml of puromycin (A1113803, Gibco). Cells were then split and plated in 10 cm dishes in DMEM supplemented with FBS and puromycin. After 48 hours, cells were lysed in 1 ml of RIPA buffer with the addition of a protease inhibitor (11873580001, Roche) for 30 minutes. The mixture was then centrifuged at 20,000 g for 1 hour to remove all cell debris. Activity assay was run as above in the sKL halflife study. Instead of serum, 20 μl of the indicated cell lysate was used and combined with 80 μl of activity assay buffer.

binding affinity for FGFR1c compared with wildtype sKL (FGFR1c): does not affect | FGF23 binding of sKL variants in HEK293 cell media compared with wildtype sKL (FGF23): increased FGF23 binding
B1: sKL-N694Q: sKL variant with glycosylation site Asn694 substituted by Gln (protein)
chain: EPGDGAQTWARFSRPPAPEAAGLFQGTFPDGFLWAVGSAAYQTEGGWQQHGKGASIWDTFTHHPLAPPGDSRNASLPLGAPSPLQPATGDVASDSYNNVFRDTEALRELGVTHYRFSISWARVLPNGSAGVPNREGLRYYRRLLERLRELGVQPVVTLYHWDLPQRLQDAYGGWANRALADHFRDYAELCFRHFGGQVKYWITIDNPYVVAWHGYATGRLAPGIRGSPRLGYLVAHNLLLAHAKVWHLYNTSFRPTQGGQVSIALSSHWINPRRMTDHSIKECQKSLDFVLGWFAKPVFIDGDYPESMKNNLSSILPDFTESEKKFIKGTADFFALCFGPTLSFQLLDPHMKFRQLESPNLRQLLSWIDLEFNHPQIFIVENGWFVSGTTKRDDAKYMYYLKKFIMETLKAIKLDGVDVIGYTAWSLMDGFEWHRGYSIRRGLFYVDFLSQDKMLLPKSSALFYQKLIEKNGFPPLPENQPLEGTFPCDFAWGVVDNYIQVDTTLSQFTDLNVYLWDVHHSKRLIKVDGVVTKKRKSYCVDFAAIQPQIALLQEMHVTHFRFSLDWALILPLGNQSQVNHTILQYYRCMASELVRVNITPVVALWQPMAPNQGLPRLLARQGAWENPYTALAFAEYARLCFQELGHHVKLWITMNEPYTRQMTYSAGHNLLKAHALAWHVYNEKFRHAQNGKISIALQADWIEPACPFSQKDKEVAERVLEFDIGWLAEPIFGSGDYPWVMRDWLNQRNNFLLPYFTEDEKKLIQGTFDFLALSHYTTILVDSEKEDPIKYNDYLEVQEMTDITWLNSPSQVAVVPWGLRKVLNWLKFKYGDLPMYIISNGIDDGLHAEDDQLRVYYMQNYINEALKAHILDGINLCGYFAYSFNDRTAPRFGLYRYAADQFEPKASMKHYRKIIDSNGFPGPETLERFCPEEFTVCTECSFFHTRKS
modifications: left off: small tags and cut ends
notes: sKL variant with glycosylation site Asn694 substituted by Gln

B2: FGF5: recombinant human FGF5 from R&D Systems (protein)
chain: EKRLAPKGQPGPAATDRNPRGSSSRQSSSSAMSSSSASSSPAASLGSQGSGLEQSSFQWSPSGRRTGSLYCRVGIGFHLQIYPDGKVNGSHEANMLSVLEIFAVSQGIVGIRGVFSNKFLAMSKKGKLHASAKFTDDCKFRERFQENSYNTYASAIHRTEKTGREWYVALNKRGKAKRGCSPRVKPQHISTHFLPRFKQSEQPELSFTVTVPEKKKPPSPIKPKIPLSAPRKNTNSVKYRLKFRFG
ERK phosphorylation induced by FGF [1]: induced ERK phosphorylation

B3: FGF8b: recombinant human FGF8b from R&D Systems (protein)
chain: QVTVQSSPNFTQHVREQSLVTDQLSRRLIRTYQLYSRTSGKHVQVLANKRINAMAEDGDPFAKLIVETDTFGSRVRVRGAETGLYICMNKKGKLIAKSNGKGKDCVFTEIVLENNYTALQNAKYEGWYMAFTRKGRPRKGSKTRQHQREVHFMKRLPRGHHTTEQSLRFEFLNYPPFTRSLRGSQRTWAPEPR
ERK phosphorylation induced by FGF [1]: induced ERK phosphorylation

B4: BKL: full-length β-klotho in total lysates of stably transfected HEK293T cells (protein)
chain: MKTGCAAGSPGNEWIFFSSDERNTRSRKTMSNRALQRSAVLSAFVLLRAVTGFSGDGKAIWDKKQYVSPVNPSQLFLYDTFPKNFSWGVGTGAFQVEGSWKTDGRGPSIWDRYVYSHLRGVNGTDRSTDSYIFLEKDLLALDFLGVSFYQFSISWPRLFPNGTVAAVNAQGLRYYRALLDSLVLRNIEPIVTLYHWDLPLTLQEEYGGWKNATMIDLFNDYATYCFQTFGDRVKYWITIHNPYLVAWHGFGTGMHAPGEKGNLTAVYTVGHNLIKAHSKVWHNYDKNFRPHQKGWLSITLGSHWIEPNRTDNMEDVINCQHSMSSVLGWFANPIHGDGDYPEFMKTGAMIPEFSEAEKEEVRGTADFFAFSFGPNNFRPSNTVVKMGQNVSLNLRQVLNWIKLEYDDPQILISENGWFTDSYIKTEDTTAIYMMKNFLNQVLQAIKFDEIRVFGYTAWTLLDGFEWQDAYTTRRGLFYVDFNSEQKERKPKSSAHYYKQIIQDNGFPLKESTPDMKGRFPCDFSWGVTESVLKPEFTVSSPQFTDPHLYVWNVTGNRLLYRVEGVRLKTRPSQCTDYVSIKKRVEMLAKMKVTHYQFALDWTSILPTGNLSKVNRQVLRYYRCVVSEGLKLGVFPMVTLYHPTHSHLGLPLPLLSSGGWLNMNTAKAFQDYAELCFRELGDLVKLWITINEPNRLSDMYNRTSNDTYRAAHNLMIAHAQVWHLYDRQYRPVQHGAVSLSLHCDWAEPANPFVDSHWKAAERFLQFEIAWFADPLFKTGDYPSVMKEYIASKNQRGLSSSVLPRFTAKESRLVKGTVDFYALNHFTTRFVIHKQLNTNRSVADRDVQFLQDITRLSSPSRLAVTPWGVRKLLAWIRRNYRDRDIYITANGIDDLALEDDQIRKYYLEKYVQEALKAYLIDKVKIKGYYAFKLTEEKSKPRFGFFTSDFRAKSSVQFYSKLISSSGLPAENRSPACGQPAEDTDCTICSFLVEKKPLIFFGCCFISTLAVLLSITVFHHQKRRKFQKARNLQNIPLKKGHSRVFS
modifications: left off: small tags and cut ends
notes: full-length β-klotho in total lysates of stably transfected HEK293T cells
binding in the sKL detection assay, total cell lysates (FGF23 and FGFR1c): no measurable binding activity
